The Human Domainome abundance scans (Beltran et al. 2025)
± gives the uncertainty stated by the source.

B1: Bromodomain adjacent to zinc finger domain protein 2B, residues 1927 to 1982; numbered along this chain, Q9UIF8 (parent)
chain: KSIMKVYCQICRKGDNEELLLLCDGCDKGCHTYCHRPKITTIPDGDWFCPACIAKA

Variants of: B1
Test: abundance fitness (aPCA) (normalised: wild type 0, dead -1); higher = more abundant; growth selection in yeast, the domain comes from the species named
Settings: Homo sapiens
With KSIMKVYCQICRKGDNEELLLLCDGCDKGCHTYCHRAKITTIPDGDWFCPACIAKA the abundance fitness was -0.056 ± 0.1.
For KSIMKVYCQICRKGDNEELLLLCDGCDKGCHTYCHRDKITTIPDGDWFCPACIAKA, the abundance fitness was -0.195 ± 0.16.
Variant KSIMKVYCQICRKGDNEELLLLCDGCDKGCHTYCHRGKITTIPDGDWFCPACIAKA has an abundance fitness of -0.161 ± 0.098.
KSIMKVYCQICRKGDNEELLLLCDGCDKGCHTYCHRMKITTIPDGDWFCPACIAKA gave an abundance fitness of -0.227 ± 0.094.
For KSIMKVYCQICRKGDNEELLLLCDGCDKGCHTYCHREKITTIPDGDWFCPACIAKA, the abundance fitness was 0.026 ± 0.14.
With KSIMKVYCQICRKGDNEELLLLCDGCDKGCHTYCHRNKITTIPDGDWFCPACIAKA the abundance fitness was -0.166 ± 0.13.
Variant KSIMKVYCQICRKGDNEELLLLCDGCDKGCHTYCHRRKITTIPDGDWFCPACIAKA has an abundance fitness of -0.227 ± 0.071.
Work on KSIMKVYCQICRKGDNEELLLLCDGCDKGCHTYCHRFKITTIPDGDWFCPACIAKA yielded an abundance fitness of -0.333 ± 0.12.
Variant KSIMKVYCQICRKGDNEELLLLCDGCDKGCHTYCHRCKITTIPDGDWFCPACIAKA has an abundance fitness of -0.32 ± 0.11.
Variant KSIMKVYCQICRKGDNEELLLLCDGCDKGCHTYCHRHKITTIPDGDWFCPACIAKA has an abundance fitness of -0.188 ± 0.11.
Work on KSIMKVYCQICRKGDNEELLLLCDGCDKGCHTYCHRLKITTIPDGDWFCPACIAKA yielded an abundance fitness of -0.177 ± 0.069.
For KSIMKVYCQICRKGDNEELLLLCDGCDKGCHTYCHRQKITTIPDGDWFCPACIAKA, the abundance fitness was -0.239 ± 0.1.
In the case of KSIMKVYCQICRKGDNEELLLLCDGCDKGCHTYCHRTKITTIPDGDWFCPACIAKA, the abundance fitness is reported as -0.148 ± 0.099.
KSIMKVYCQICRKGDNEELLLLCDGCDKGCHTYCHRSKITTIPDGDWFCPACIAKA gave an abundance fitness of -0.202 ± 0.081.
Variant KSIMKVYCQICRKGDNEELLLLCDGCDKGCHTVCHRPKITTIPDGDWFCPACIAKA has an abundance fitness of -0.178 ± 0.071.
Work on KSIMKVYCQICRKGDNEELLLLCDGCDKGCHTTCHRPKITTIPDGDWFCPACIAKA yielded an abundance fitness of 0.089 ± 0.1.
KSIMKVYCQICRKGDNEELLLLCDGCDKGCHTDCHRPKITTIPDGDWFCPACIAKA gave an abundance fitness of -0.123 ± 0.11.
In the case of KSIMKVYCQICRKGDNEELLLLCDGCDKGCHTSCHRPKITTIPDGDWFCPACIAKA, the abundance fitness is reported as -0.086 ± 0.077.
KSIMKVYCQICRKGDNEELLLLCDGCDKGCHTCCHRPKITTIPDGDWFCPACIAKA showed an abundance fitness of -0.289 ± 0.13.
Work on KSIMKVYCQICRKGDNEELLLLCDGCDKGCHTFCHRPKITTIPDGDWFCPACIAKA yielded an abundance fitness of -0.154 ± 0.17.
For KSIMKVYCQICRKGDNEELLLLCDGCDKGCHTECHRPKITTIPDGDWFCPACIAKA, the abundance fitness was -0.058 ± 0.09.
In the case of KSIMKVYCQICRKGDNEELLLLCDGCDKGCHTLCHRPKITTIPDGDWFCPACIAKA, the abundance fitness is reported as -0.202 ± 0.07.
In the case of KSIMKVYCQICRKGDNEELLLLCDGCDKGCHTACHRPKITTIPDGDWFCPACIAKA, the abundance fitness is reported as -0.105 ± 0.074.
With KSIMKVYCQICRKGDNEELLLLCDGCDKGCHTKCHRPKITTIPDGDWFCPACIAKA the abundance fitness was -0.123 ± 0.1.
Variant KSIMKVYCQICRKGDNEELLLLCDGCDKGCHTICHRPKITTIPDGDWFCPACIAKA has an abundance fitness of -0.223 ± 0.18.
Work on KSIMKVYCQICRKGDNEELLLLCDGCDKGCHTWCHRPKITTIPDGDWFCPACIAKA yielded an abundance fitness of -0.178 ± 0.094.
Work on KSIMKVYCQICRKGDNEELLLLCDGCDKGCHTRCHRPKITTIPDGDWFCPACIAKA yielded an abundance fitness of -0.053 ± 0.069.
Variant KSIMKVYCQICRKGDNEELLLLCDGCDKGCHTNCHRPKITTIPDGDWFCPACIAKA has an abundance fitness of -0.213 ± 0.16.
Work on KSIMKVYCQICRKGDNEELLLLCDGCDKGCHTPCHRPKITTIPDGDWFCPACIAKA yielded an abundance fitness of -0.323 ± 0.09.
Variant KSIMKVYCQICRKGDNEELLLLCDGCDKGCHTHCHRPKITTIPDGDWFCPACIAKA has an abundance fitness of -0.111 ± 0.14.
In the case of KSIMKVYCQICRKGDNEELLLLCDGCDKGCHTYCHKPKITTIPDGDWFCPACIAKA, the abundance fitness is reported as -0.168 ± 0.13.
With KSIMKVYCQICRKGDNEELLLLCDGCDKGCHTYCHIPKITTIPDGDWFCPACIAKA the abundance fitness was -0.175 ± 0.14.
Work on KSIMKVYCQICRKGDNEELLLLCDGCDKGCHTYCHCPKITTIPDGDWFCPACIAKA yielded an abundance fitness of 0.008 ± 0.12.
For KSIMKVYCQICRKGDNEELLLLCDGCDKGCHTYCHAPKITTIPDGDWFCPACIAKA, the abundance fitness was -0.007 ± 0.074.
Work on KSIMKVYCQICRKGDNEELLLLCDGCDKGCHTYCHGPKITTIPDGDWFCPACIAKA yielded an abundance fitness of -0.015 ± 0.068.
Variant KSIMKVYCQICRKGDNEELLLLCDGCDKGCHTYCHVPKITTIPDGDWFCPACIAKA has an abundance fitness of 0.053 ± 0.07.
In the case of KSIMKVYCQICRKGDNEELLLLCDGCDKGCHTYCHSPKITTIPDGDWFCPACIAKA, the abundance fitness is reported as 0.065 ± 0.074.
Work on KSIMKVYCQICRKGDNEELLLLCDGCDKGCHTYCHFPKITTIPDGDWFCPACIAKA yielded an abundance fitness of -0.154 ± 0.12.
Work on KSIMKVYCQICRKGDNEELLLLCDGCDKGCHTYCHDPKITTIPDGDWFCPACIAKA yielded an abundance fitness of -0.03 ± 0.11.
Variant KSIMKVYCQICRKGDNEELLLLCDGCDKGCHTYCHQPKITTIPDGDWFCPACIAKA has an abundance fitness of -0.1 ± 0.12.
KSIMKVYCQICRKGDNEELLLLCDGCDKGCHTYCHHPKITTIPDGDWFCPACIAKA gave an abundance fitness of 0.021 ± 0.14.
With KSIMKVYCQICRKGDNEELLLLCDGCDKGCHTYCHYPKITTIPDGDWFCPACIAKA the abundance fitness was -0.252 ± 0.12.
KSIMKVYCQICRKGDNEELLLLCDGCDKGCHTYCHTPKITTIPDGDWFCPACIAKA gave an abundance fitness of 0.078 ± 0.11.
Variant KSIMKVYCQICRKGDNEELLLLCDGCDKGCHTYCHWPKITTIPDGDWFCPACIAKA has an abundance fitness of -0.004 ± 0.12.
Work on KSIMKVYCQICRKGDNEELLLLCDGCDKGCHTYCHEPKITTIPDGDWFCPACIAKA yielded an abundance fitness of 0.058 ± 0.1.
For KSIMKVYCQICRKGDNEELLLLCDGCDKGCHTYCHLPKITTIPDGDWFCPACIAKA, the abundance fitness was 0.06 ± 0.081.
Variant KSIMKVYCQICRKGDNEELLLLCDGCDKGCHTYCHPPKITTIPDGDWFCPACIAKA has an abundance fitness of -0.078 ± 0.1.
